# Source: patent publication US12458818B2, “Anti-trophoblast cell surface antigen 2 (TROP2) antibodies and antibody drug conjugates comprising same” (CSPC MEGALITH BIOPHARMACEUTICAL CO., LTD., priority 2019, dated 2025)
# Where “and” joins values, the source holds several entries; their conditions need not be identical. Equal values may be shown once.
# B1: DP002-HC4LC5-ADC: anti-TROP2-MMAE antibody drug conjugate (DAR ~1.6-2.3) of antibody with HC4 and LC5 (SEQ ID NO: 62) (conjugate)
# VH: EVQLVQSGAEVKKPGESLKISCKGSGYTFTDYSINWVRQMPGKGLEWMGVISTYYGDASYNQKFKGQVTISADKSISTAYLQWSSLKASDTAMYYCARYGDGYNQFDYWGQGTLVTVSS
# light: DIQMTQSPSSLSASVGDRVTITCRVSESVDSYGNNFMHWYQQKPGKAPKLLIYRASNLESGVPSRFSGSGSGTDFTFTISSLQPEDIATYYCQQSYEDPYTFGGGTKLEIKRTVAAPSVFIFPPSDEQLKSGTASVVCLLNNFYPREAKVQWKVDNALQSGNSQESVTEQDSKDSTYSLSSTLTLSKADYEKHKVYACEVTHQGLSSPVTKSFNRGEC
# modifications: MMAE conjugate
# Key:
# Format in all cases: in vivo, mouse
# [1] = tested on: xenografted MDA-MB-468 human breast adenocarcinoma tumors; test: MDA-MB-468 xenograft efficacy in female nude mice (Example 4)
# Procedure: The anti-tumor activity of DP002-HC4LC5-ADC was evaluated as a single agent in female nude mice bearing xenografted MDA-MB-468 human breast adenocarcinoma tumors.
# (§1) Each mouse was inoculated with 5×10^6 MDA-MB-468 tumor cells (in 0.1 mL, 1:1 with Matrigel) at the right flank by subcutaneous administration under sterile conditions. When the tumors reached a volume of ˜150 mm^3, mice were randomized into one of 7 treatment groups (6 mice per group), as outlined in Table 12, and treatments began. All doses of DP002-HC4LC5-ADC were administered by intravenous injection via tail vein injection.
# (§2) Tumor size and animal body weight were measured twice per week. Clinical signs were recorded daily. Tumors were measured using a caliper in two dimensions (i.e., length (a) and width (b)), and tumor volumes were estimated from measurements of the two diameters of the individual tumors as follows: Tumor Volume (mm^3)=(a×b^2)/2.
# (§3) Average tumor growth curves for each treatment group were plotted with the observation time on the X-axis, and corresponding tumor volume (geometric mean) on the Y-axis. A two-tailed t-test was used to analyze the statistical significance of any differences between the treatment groups and the control group. Tumor Growth Inhibition (TGI) was calculated after each tumor volume measurement according to the formula: % TGI=(TVcn−TVtn)/TVcn×100, where TVtn and TVcn are the mean tumor Volume of treated and control groups, respectively. Body weight change (CBW %) was calculated after each body weight measurement according to the formula: CBW %=(BWn−BW0)/BW0×100, where BWn is the body weight at day n and BW0 is the body weight at day 0 respectively.
# [2] = Side effects in xenografted NOD/SCID mice (Example 3); settings: 1 mg/kg or 4 mg/kg intravenous, single dose on Day 0
# Procedure: The efficacies of two anti-TROP2-MMAE antibody drug conjugates, DP002-HC1LC5-ADC (DAR ˜2) and DP002-HC4LC5-ADC (DAR ˜1.6-2.3), in inhibiting tumor growth in mice bearing human MDA-MB-468 breast adenocarcinoma tumor xenografts were tested. DP002-HC1LC5-ADC comprises an anti-TROP antibody that comprises HC 1 (SEQ ID NO: 52) and LC5 (SEQ ID NO: 62); DP002-HC4LC5-ADC comprises an anti-TROP antibody that comprises HC 4 (SEQ ID NO: 44) and LC5 (SEQ ID NO: 62). Briefly, 48 NOD/SCID mice (female, 6-8 weeks of age) were implanted with 0.1 ml MDA-MB-468 cells (lx 10^7 cell/ml). When the tumors sizes reached above 181 mm^3 (34 days after tumor inoculation), the mice were sorted randomly into 7 groups (6 mice/group) and treated according to the schedule provided in Table 10 below: […]
# [3] = Body weight and tolerability in xenografted nude mice (Example 4)
# Procedure: as §1, §2, §3
# [4] = 2 mg/kg IV once on Day 0, n = 6 unless specified
# [5] = 4 mg/kg IV once on Day 0, n = 6 unless specified
# [6] = 4 mg/kg IV once on Day 0, outlier animal excluded
# [7] = 2 mg/kg IV Day 0 + 1 mg/kg IV Days 7, 14
molecule,measurement,setting,value
B1,Number of mice demonstrating full tumor regression at Week 8 following first dose,[1]; [4],2
same,Number of mice demonstrating full tumor regression at Week 9 following first dose,[1]; [4],2
same,Number of mice demonstrating full tumor regression at Week 10 following first dose,[1]; [4],2
same,Number of mice demonstrating full tumor regression at Week 11 following first dose,[1]; [4],2/6 and 2
same,Number of mice demonstrating full tumor regression at Week 12 following first dose,[1]; [4],1 (n = 5)
same,% of mice with tumor regression at the end of the study,[1]; 4 mg/kg IV as a single dose on Day 0,66%
same,% TGI Day 70,[1]; 4 mg/kg IV once on Day 0,78.49%
same,"Tumor Volume (mm^3, Mean ± SEM) Day 70",[1]; 4 mg/kg IV once on Day 0,293.26 mm^3 and 293.26 ± 288.40** mm^3
same,"Tumor Weight (g, Mean ± SEM) Day 84",[1]; 4 mg/kg IV once on Day 0,0.346 ± 0.341 g
same,Number of mice demonstrating full tumor regression at Week 4 following first dose,[1]; [5],4
same,Number of mice demonstrating full tumor regression at Week 5 following first dose,[1]; [5],4
same,Number of mice demonstrating full tumor regression at Week 6 following first dose,[1]; [5],4
same,Number of mice demonstrating full tumor regression at Week 7 following first dose,[1]; [5],4
same,Number of mice demonstrating full tumor regression at Week 8 following first dose,[1]; [5],4
same,Number of mice demonstrating full tumor regression at Week 9 following first dose,[1]; [5],4
same,Number of mice demonstrating full tumor regression at Week 10 following first dose,[1]; [5],4
same,Number of mice demonstrating full tumor regression at Week 11 following first dose,[1]; [5],4/6 and 4
same,Number of mice demonstrating full tumor regression at Week 12 following first dose,[1]; [5],4
same,"TGI on Day 70, excluding the outlier",[1]; [6],99.64%
same,"average tumor size on Day 70, excluding the outlier",[1]; [6],4.89 mm^3
same,"side effects based on changes in body weight, survival and gross observations",[2],No obvious side effects
same,BWC (%) Day 70 (body weight change vs Day 0),"[3]; 1 mg/kg IV Days 0, 7, 14, 21",8.95%
same,"Body Weight (g, Mean ± SEM) Day 70","[3]; 1 mg/kg IV Days 0, 7, 14, 21",21.70 ± 0.30 g
same,"Body Weight (g, Mean ± SEM) Day 84","[3]; 1 mg/kg IV Days 0, 7, 14, 21",21.24 ± 0.26 g
same,Drug-related Death,"[3]; 1 mg/kg IV Days 0, 7, 14, 21",0
same,average body weight increase (%) on Day 84 compared to Day 0,"[3]; 1 mg/kg IV Days 0, 7, 14, 21",6.66%
same,average body weight increase on Day 70 compared to Day 0,"[3]; 1 mg/kg IV Days 0, 7, 14, 21",1.76 g
same,average body weight increase on Day 84 compared to Day 0,"[3]; 1 mg/kg IV Days 0, 7, 14, 21",1.30 g
same,BWC (%) Day 70 (body weight change vs Day 0),[3]; 1 mg/kg IV once on Day 0,15.09%
same,"Body Weight (g, Mean ± SEM) Day 70",[3]; 1 mg/kg IV once on Day 0,22.01 ± 0.50 g
same,"Body Weight (g, Mean ± SEM) Day 84",[3]; 1 mg/kg IV once on Day 0,22.06 ± 0.64 g
same,Drug-related Death,[3]; 1 mg/kg IV once on Day 0,0
same,average body weight increase (%) on Day 84 compared to Day 0,[3]; 1 mg/kg IV once on Day 0,12.37%
same,average body weight increase on Day 70 compared to Day 0,[3]; 1 mg/kg IV once on Day 0,2.87 g
same,average body weight increase on Day 84 compared to Day 0,[3]; 1 mg/kg IV once on Day 0,2.92 g
same,BWC (%) Day 70 (body weight change vs Day 0),[3]; [7],8.89%
same,"Body Weight (g, Mean ± SEM) Day 70",[3]; [7],21.18 ± 0.49 g
same,"Body Weight (g, Mean ± SEM) Day 84",[3]; [7],21.31 ± 0.46 g
same,Drug-related Death,[3]; [7],0
same,average body weight increase (%) on Day 84 compared to Day 0,[3]; [7],10.24%
same,average body weight increase on Day 70 compared to Day 0,[3]; [7],1.72 g
same,average body weight increase on Day 84 compared to Day 0,[3]; [7],1.85 g
same,BWC (%) Day 70 (body weight change vs Day 0),[3]; 2 mg/kg IV once on Day 0,11.00%
same,"Body Weight (g, Mean ± SEM) Day 70",[3]; 2 mg/kg IV once on Day 0,21.63 ± 0.39 g
same,"Body Weight (g, Mean ± SEM) Day 84",[3]; 2 mg/kg IV once on Day 0,21.75 ± 0.55 g
same,Drug-related Death,[3]; 2 mg/kg IV once on Day 0,0
same,average body weight increase (%) on Day 84 compared to Day 0,[3]; 2 mg/kg IV once on Day 0,10.84%
same,average body weight increase on Day 70 compared to Day 0,[3]; 2 mg/kg IV once on Day 0,2.14 g
same,average body weight increase on Day 84 compared to Day 0,[3]; 2 mg/kg IV once on Day 0,2.26 g
same,BWC (%) Day 70 (body weight change vs Day 0),[3]; 4 mg/kg IV once on Day 0,10.87%
same,"Body Weight (g, Mean ± SEM) Day 70",[3]; 4 mg/kg IV once on Day 0,21.72 ± 0.44 g
same,"Body Weight (g, Mean ± SEM) Day 84",[3]; 4 mg/kg IV once on Day 0,20.96 ± 0.55 g
same,Drug-related Death,[3]; 4 mg/kg IV once on Day 0,0
same,average body weight increase (%) on Day 84 compared to Day 0,[3]; 4 mg/kg IV once on Day 0,6.99%
same,average body weight increase on Day 70 compared to Day 0,[3]; 4 mg/kg IV once on Day 0,2.13 g
same,average body weight increase on Day 84 compared to Day 0,[3]; 4 mg/kg IV once on Day 0,1.37 g
same,tolerability in mice,[3]; maximum cumulative dose of 4 mg/kg IV (single or split doses),well tolerated
